Target: GST-β1A-integrin tails (UniProt P05556)
Test: pull-down; different concentrations of purified His-tagged talin head incubated with glutathione agarose beads preloaded with GST-β1A-integrin tails or GST; lysis buffer A (50 mM Tris-HCl pH 7.4, 1% NP-40, 150 mM NaCl, 1 mM EDTA, protease inhibitors) with 0.5 mg/ml bovine gelatin; bound protein on SDS-PAGE, Coomassie blue, quantified against standards on the same gel; Kd fitted with SigmaPlot

Chain of UniProt P05556 (P05556 21-798): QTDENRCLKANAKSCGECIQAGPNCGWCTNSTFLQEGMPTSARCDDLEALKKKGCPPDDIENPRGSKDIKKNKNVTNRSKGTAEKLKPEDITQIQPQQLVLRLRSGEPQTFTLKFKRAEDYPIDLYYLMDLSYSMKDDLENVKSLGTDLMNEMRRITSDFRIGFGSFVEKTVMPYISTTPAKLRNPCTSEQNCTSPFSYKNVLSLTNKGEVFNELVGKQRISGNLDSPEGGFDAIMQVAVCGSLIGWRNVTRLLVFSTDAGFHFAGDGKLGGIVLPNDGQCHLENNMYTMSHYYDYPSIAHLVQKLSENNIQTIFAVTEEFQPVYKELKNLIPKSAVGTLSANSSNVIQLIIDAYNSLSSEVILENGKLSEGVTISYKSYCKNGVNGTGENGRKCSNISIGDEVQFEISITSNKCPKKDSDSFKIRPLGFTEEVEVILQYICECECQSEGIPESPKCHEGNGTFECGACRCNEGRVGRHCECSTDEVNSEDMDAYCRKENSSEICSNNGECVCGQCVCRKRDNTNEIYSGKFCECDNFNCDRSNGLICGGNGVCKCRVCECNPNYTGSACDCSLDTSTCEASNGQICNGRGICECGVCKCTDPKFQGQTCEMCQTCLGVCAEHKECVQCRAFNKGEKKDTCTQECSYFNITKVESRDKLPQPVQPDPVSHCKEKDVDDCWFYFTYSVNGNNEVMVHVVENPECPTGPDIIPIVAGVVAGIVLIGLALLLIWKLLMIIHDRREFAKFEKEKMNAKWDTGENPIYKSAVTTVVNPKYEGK

Kd	Substance
880 nM	His-tagged talin1(1-446) WT (from UniProt Q9Y490 1-446) (domain or fragment)
350 nM	His-tagged talin2(1-449) WT (from UniProt Q9Y4G6 1-449) (domain or fragment)

From publication PMC5290461
